In publication PMC2572732 (2008):
Non-standard residues stand in square brackets, D forms with d. No end group written: not given here. pY = N[C@@H](Cc1ccc(OP(=O)(O)O)cc1)C(=O)O

Assays:
[1] = molecular target: isolated Fes SH2 domain, G463V (mutant G/V) (human, UniProt P07332-1 460-549, G463V (mutant G/V)); assay: FP
[2] = molecular target: isolated Fes SH2 domain, E469K/E472K (mutant EE/KK) (human, UniProt P07332-1 460-549, E469K | E472K); assay: FP
[3] = molecular target: isolated Fes SH2 domain, wild type (human, UniProt P07332-1 460-549); assay: FP
[4] = molecular target: human Fes SH2-kinase unit (residues I448 to the C terminus), unphosphorylated (human, UniProt P07332-1 448-822); assay: FP; 1 mM ATP and 5 mM MgCl2

Measured: Kd

Sequence of isolated Fes SH2 domain, G463V (mutant G/V) (P07332 460-549 G463V): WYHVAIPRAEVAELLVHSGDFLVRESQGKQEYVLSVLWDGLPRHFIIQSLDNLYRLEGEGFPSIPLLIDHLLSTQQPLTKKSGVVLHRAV
Sequence of isolated Fes SH2 domain, wild type (P07332 460-549): as the sequence (P07332 460-549 G463V) above, with V4G counted along it
Sequence of isolated Fes SH2 domain, E469K/E472K (mutant EE/KK) (P07332 460-549 E469K/E472K): as the sequence (P07332 460-549 G463V) above, with V4G, E10K, E13K counted along it
Sequence of human Fes SH2-kinase unit (residues I448 to the C terminus), unphosphorylated (P07332 448-822): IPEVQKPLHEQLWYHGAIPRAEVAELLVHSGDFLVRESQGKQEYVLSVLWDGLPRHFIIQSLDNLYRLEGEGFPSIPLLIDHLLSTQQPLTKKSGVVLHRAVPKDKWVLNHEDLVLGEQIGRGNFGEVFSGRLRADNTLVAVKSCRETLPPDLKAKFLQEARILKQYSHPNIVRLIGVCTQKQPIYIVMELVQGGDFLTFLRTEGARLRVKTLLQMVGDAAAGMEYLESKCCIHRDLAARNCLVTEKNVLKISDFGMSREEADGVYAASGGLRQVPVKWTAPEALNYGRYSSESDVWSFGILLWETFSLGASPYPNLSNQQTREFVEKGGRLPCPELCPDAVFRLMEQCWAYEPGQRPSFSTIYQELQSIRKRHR

V[pY]EPVSY [pTyr-containing peptide from ezrin (VpYEPVSY)]
~400 nM: all assays above
